Results as given in doi:10.1101/2021.11.30.470528.

Target: GST affinity tag
Assay: SEC

Sequence of GST affinity tag (P08515 2-218): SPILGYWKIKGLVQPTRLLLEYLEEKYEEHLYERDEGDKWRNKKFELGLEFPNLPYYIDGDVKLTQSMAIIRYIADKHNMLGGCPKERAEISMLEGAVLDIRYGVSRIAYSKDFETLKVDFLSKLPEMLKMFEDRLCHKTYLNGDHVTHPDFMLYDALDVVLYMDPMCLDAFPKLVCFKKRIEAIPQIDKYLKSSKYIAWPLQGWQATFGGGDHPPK

Q: With GST affinity tag as the substance, how does the stoichiometry N read?
A: Its stoichiometry N is 2.
